Where “and” joins values, the source holds several entries; their conditions need not be identical. Equal values may be shown once.
Experiments:
[1] = biological target: H1N1 influenza neuraminidase (influenza H1N1 (strain not stated))
[2] = biological target: H3N2 influenza neuraminidase (influenza H3N2 (strain not stated))
[3] = biological target: influenza H5N1 neuraminidase (H5N1 A/Thailand/1(KAN-1)/2004) (influenza A virus H5N1 A/Thailand/1(KAN-1)/2004)

B1: Anti-Flu neuraminidase VHH (clone Flu 27-8) (VHH)
VHH: QVQLVESGGRLVQAGGSLRVACVASGGTFSSYVMGWFRQAPGKERESVASITRDGDTTFYADSVKGRFTIARDNAKNTVYLQMNSLQPEDTGVYYCAAAVQYGTLWSRQYDYWGQGTQVTVSS
B1 was tested, and the ELISA reactivity compared to control protein (BSA) [1] was 1.89, the ELISA reactivity compared to control protein (BSA) [2] was 1.08 and the ELISA reactivity compared to control protein (BSA) [3] was 2.48.

B2: Bivalent homodimer of humanized anti-Flu neuraminidase VHH (clone Flu h27-8GL.h27-8GL) (VHH)
chain: QVQLVESGGGLVQPGGSLRLSCAASGGTFSSYVMGWFRQAPGKGLESVASITRDGDTTFYADSVKGRFTISRDNSKNTLYLQMNSLRAEDTAVYYCAAAVQYGTLWSRQYDYWGQGTLVTVSSAHHSEDPSSKAPKAPMAQVQLVESGGGLVQPGGSLRLSCAASGGTFSSYVMGWFRQAPGKGLESVASITRDGDTTFYADSVKGRFTISRDNSKNTLYLQMNSLRAEDTAVYYCAAAVQYGTLWSRQYDYWGQGTLVTVSS
For B2, the ELISA reactivity compared to control protein (BSA) [1] was 2.44 and 1.31, the ELISA reactivity compared to control protein (BSA) [2] was 1.67 and 1.13 and the ELISA reactivity compared to control protein (BSA) [3] was 3.73 and 2.15.

B3: humanized VHH h27-8GL (monovalent) (VHH)
VHH: QVQLVESGGGLVQPGGSLRLSCAASGGTFSSYVMGWFRQAPGKGLESVASITRDGDTTFYADSVKGRFTISRDNSKNTLYLQMNSLRAEDTAVYYCAAAVQYGTLWSRQYDYWGQGTLVTVSS
For B3, the ELISA reactivity compared to control protein (BSA) [1] was 1.62 and 1.21, the ELISA reactivity compared to control protein (BSA) [2] was 1.34 and 1.09 and the ELISA reactivity compared to control protein (BSA) [3] was 2.27 and 1.78.

From patent US20170183645A1
